Test results taken from the supplement of paper PMC10567573.

B1: FBF1 (parent)
chain: QLQCSPAELQAELLHSQARLAELE
B2: TRIM39 (parent)
chain: ERDFPCPVCRKTSRYRSLRPNRQL

Variants of: B1
Experiment: protein stability index of a GFP-peptide fusion (GPS, HEK-293T) (PSI 1-6); higher = more stable
Details: c terminus: a fixed tail appended
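Further: lentivirally expressed fusions sorted by FACS into six bins by GFP to DsRed ratio, PSI derived from sequencing read proportions per bin multiplied by bin number.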

Variant	protein stability index
QQQCSPAELQAELLHSQARLAELE [L2Q]	3.85
QPQCSPAELQAELLHSQARLAELE [L2P]	4.15
QGQCSPAELQAELLHSQARLAELE [L2G]	3.38
QFQCSPAELQAELLHSQARLAELE [L2F]	2.83
QIQCSPAELQAELLHSQARLAELE [L2I]	2.82
QDQCSPAELQAELLHSQARLAELE [L2D]	3.65
QCQCSPAELQAELLHSQARLAELE [L2C]	2.42
QHQCSPAELQAELLHSQARLAELE [L2H]	3.21
QEQCSPAELQAELLHSQARLAELE [L2E]	4.46
QNQCSPAELQAELLHSQARLAELE [L2N]	3.52
QMQCSPAELQAELLHSQARLAELE [L2M]	3.61
QAQCSPAELQAELLHSQARLAELE [L2A]	3.02
QKQCSPAELQAELLHSQARLAELE [L2K]	2.89
YLQCSPAELQAELLHSQARLAELE [Q1Y]	2.6
FLQCSPAELQAELLHSQARLAELE [Q1F]	2.06
SLQCSPAELQAELLHSQARLAELE [Q1S]	3.31

Variant	protein stability index
KLQCSPAELQAELLHSQARLAELE [Q1K]	2.69
ELQCSPAELQAELLHSQARLAELE [Q1E]	3.2
ALQCSPAELQAELLHSQARLAELE [Q1A]	2.89
WLQCSPAELQAELLHSQARLAELE [Q1W]	2.8
CLQCSPAELQAELLHSQARLAELE [Q1C]	2.91
GLQCSPAELQAELLHSQARLAELE [Q1G]	2.77
NLQCSPAELQAELLHSQARLAELE [Q1N]	2.82
PLQCSPAELQAELLHSQARLAELE [Q1P]	3.91
DLQCSPAELQAELLHSQARLAELE [Q1D]	3.2
TLQCSPAELQAELLHSQARLAELE [Q1T]	3.33
MLQCSPAELQAELLHSQARLAELE [Q1M]	2.64
RLQCSPAELQAELLHSQARLAELE [Q1R]	2.59
ILQCSPAELQAELLHSQARLAELE [Q1I]	2.82
HLQCSPAELQAELLHSQARLAELE [Q1H]	3.26
LLQCSPAELQAELLHSQARLAELE [Q1L]	2.62
VLQCSPAELQAELLHSQARLAELE [Q1V]	2.41

Variants of: B2
Experiment: as above
Details: c terminus: a fixed tail appended

Variant	protein stability index
ERDFPCPVCRKTSRYRSLHPNRQL [R19H]	2.08
ERDFPCPVCRKTSRYRSLAPNRQL [R19A]	1.63
ERDFPCPVCRKTSRYRSLTPNRQL [R19T]	1.75
ERDFPCPVCRKTSRYRSLSPNRQL [R19S]	2.58
ERDFPCPVCRKTSRYRSLGPNRQL [R19G]	1.89
ERDFPCPVCRKTSRYRSLIPNRQL [R19I]	2.1
ERDFPCPVCRKTSRYRSLDPNRQL [R19D]	1.54
ERDFPCPVCRKTSRYRSLNPNRQL [R19N]	1.78
ERDFPCPVCRKTSRYRSLYPNRQL [R19Y]	2.12
ERDFPCPVCRKTSRYRSLPPNRQL [R19P]	1.98
ERDFPCPVCRKTSRYRSLEPNRQL [R19E]	1.59
ERDFPCPVCRKTSRYRSLMPNRQL [R19M]	1.29
ERDFPCPVCRKTSRYRSLVPNRQL [R19V]	1.85
ERDFPCPVCRKTSRYRSLLPNRQL [R19L]	2
ERDFPCPVCRKTSRYRSLWPNRQL [R19W]	2.1
ERDFPCPVCRKTSRYRSLQPNRQL [R19Q]	1.91
ERDFPCPVCRKTSRYRSLKPNRQL [R19K]	1.82
ERDFPCPVCRKTSRYRSLRPIRQL [N21I]	1.85
ERDFPCPVCRKTSRYRSLRPRRQL [N21R]	2.96
ERDFPCPVCRKTSRYRSLRPHRQL [N21H]	1.77
ERDFPCPVCRKTSRYRSLRPERQL [N21E]	1.71
ERDFPCPVCRKTSRYRSLRPWRQL [N21W]	2.53
ERDFPCPVCRKTSRYRSLRPYRQL [N21Y]	2.52

Variant	protein stability index
ERDFPCPVCRKTSRYRSLRPPRQL [N21P]	2.12
ERDFPCPVCRKTSRYRSLRPDRQL [N21D]	2.12
ERDFPCPVCRKTSRYRSLRPVRQL [N21V]	1.9
ERDFPCPVCRKTSRYRSLRPMRQL [N21M]	2.74
ERDFPCPVCRKTSRYRSLRPQRQL [N21Q]	1.62
ERDFPCPVCRKTSRYRSLRPFRQL [N21F]	2.6
ERDFPCPVCRKTSRYRSLRPKRQL [N21K]	2.78
ERDFPCPVCRKTSRYRSLRPSRQL [N21S]	1.91
ERDFPCPVCRKTSRYRSLRPNRML [Q23M]	2.27
ERDFPCPVCRKTSRYRSLRPNRWL [Q23W]	2.26
ERDFPCPVCRKTSRYRSLRPNRPL [Q23P]	1.47
ERDFPCPVCRKTSRYRSLRPNRLL [Q23L]	1.87
ERDFPCPVCRKTSRYRSLRPNRCL [Q23C]	1.8
ERDFPCPVCRKTSRYRSLRPNRRL [Q23R]	1.71
ERDFPCPVCRKTSRYRSLRPNRFL [Q23F]	1.67
ERDFPCPVCRKTSRYRSLRPNRSL [Q23S]	2.17
ERDFPCPVCRKTSRYRSLRPNRGL [Q23G]	2.46
ERDFPCPVCRKTSRYRSLRPNRKL [Q23K]	1.92
ERDFPCPVCRKTSRYRSLRPNRNL [Q23N]	2.77
ERDFPCPVCRKTSRYRSLRPNRAL [Q23A]	1.33
ERDFPCPVCRKTSRYRSLRPNRIL [Q23I]	1.68
ERDFPCPVCRKTSRYRSLRPNRHL [Q23H]	3.18
ERDFPCPVCRKTSRYRSLRPNRYL [Q23Y]	1.66

Variant	protein stability index
ERDFPCPVCRKTSRYRSLRPNRDL [Q23D]	2.34
ERDFPCPVCRKTSRYRSLRPNRTL [Q23T]	2.9
ERDFPCPVCRKTSRYRSPRPNRQL [L18P]	2.89
ERDFPCPVCRKTSRYRSSRPNRQL [L18S]	2.42
ERDFPCPVCRKTSRYRSRRPNRQL [L18R]	2.87
ERDFPCPVCRKTSRYRSCRPNRQL [L18C]	2.24
ERDFPCPVCRKTSRYRSVRPNRQL [L18V]	2.49
ERDFPCPVCRKTSRYRSMRPNRQL [L18M]	1.82
ERDFPCPVCRKTSRYRSDRPNRQL [L18D]	2.71
ERDFPCPVCRKTSRYRSTRPNRQL [L18T]	3.13
ERDFPCPVCRKTSRYRSYRPNRQL [L18Y]	1.96
ERDFPCPVCRKTSRYRSGRPNRQL [L18G]	2.34
ERDFPCPVCRKTSRYRSNRPNRQL [L18N]	2.41
ERDFPCPVCRKTSRYRSIRPNRQL [L18I]	1.81
ERDFPCPVCRKTSRYRSWRPNRQL [L18W]	2.26
ERDFPCPVCRKTSRYRSHRPNRQL [L18H]	2.68
ERDFPCPVCRKTSRYRSFRPNRQL [L18F]	2.39
ERDFPCPVCRKTSRYRSERPNRQL [L18E]	2.1
ERDFPCPVCRKTSRYRSARPNRQL [L18A]	2.32
ERDFPCPVCRKTSRYRSQRPNRQL [L18Q]	2.39
ERDFPCPVCRKTSRYLSLRPNRQL [R16L]	1.53
ERDFPCPVCRKTSRYNSLRPNRQL [R16N]	2.23
ERDFPCPVCRKTSRYKSLRPNRQL [R16K]	2.14

Variant	protein stability index
ERDFPCPVCRKTSRYESLRPNRQL [R16E]	2.54
ERDFPCPVCRKTSRYQSLRPNRQL [R16Q]	1.91
ERDFPCPVCRKTSRYISLRPNRQL [R16I]	1.24
ERDFPCPVCRKTSRYFSLRPNRQL [R16F]	2.57
ERDFPCPVCRKTSRYGSLRPNRQL [R16G]	1.29
ERDFPCPVCRKTSRYPSLRPNRQL [R16P]	2.1
ERDFPCPVCRKTSRYYSLRPNRQL [R16Y]	1.74
ERDFPCPVCRKTSRYASLRPNRQL [R16A]	1.43
ERDFPCPVCRKTSRYCSLRPNRQL [R16C]	2.47
ERDFPCPVCRKTSRYMSLRPNRQL [R16M]	1.03
ERDFPCPVCRKTSRYSSLRPNRQL [R16S]	2.86
ERDFPCPVCRKTSRYVSLRPNRQL [R16V]	2.04
ERDFPCPVCRKTSRYHSLRPNRQL [R16H]	2.29
ERDFPCPVCRKTSRYRSLRPNSQL [R22S]	1.5
ERDFPCPVCRKTSRYRSLRPNAQL [R22A]	3.44
ERDFPCPVCRKTSRYRSLRPNDQL [R22D]	2.37
ERDFPCPVCRKTSRYRSLRPNMQL [R22M]	2.86
ERDFPCPVCRKTSRYRSLRPNEQL [R22E]	2.4
ERDFPCPVCRKTSRYRSLRPNKQL [R22K]	2.66
ERDFPCPVCRKTSRYRSLRPNHQL [R22H]	1.56
ERDFPCPVCRKTSRYRSLRPNQQL [R22Q]	1.95
ERDFPCPVCRKTSRYRSLRPNVQL [R22V]	1.76
ERDFPCPVCRKTSRYRSLRPNNQL [R22N]	1.6

Variant	protein stability index
ERDFPCPVCRKTSRYRSLRPNFQL [R22F]	1.79
ERDFPCPVCRKTSRYRSLRPNIQL [R22I]	1.93
ERDFPCPVCRKTSRYRSLRPNYQL [R22Y]	2.23
ERDFPCPVCRKTSRYRSLRPNGQL [R22G]	2.17
ERDFPCPVCRKTSRYRSLRPNLQL [R22L]	1.83
ERDFPCPVCRKTSRYRSLRPNTQL [R22T]	2.04
ERDFPCPVCRKTSRYRSLRLNRQL [P20L]	1.75
ERDFPCPVCRKTSRYRSLRINRQL [P20I]	1.6
ERDFPCPVCRKTSRYRSLRKNRQL [P20K]	2.58
ERDFPCPVCRKTSRYRSLRSNRQL [P20S]	1.76
ERDFPCPVCRKTSRYRSLRVNRQL [P20V]	2.07
ERDFPCPVCRKTSRYRSLRRNRQL [P20R]	4.09
ERDFPCPVCRKTSRYRSLRMNRQL [P20M]	3.02
ERDFPCPVCRKTSRYRSLRNNRQL [P20N]	1.77
ERDFPCPVCRKTSRYRSLRWNRQL [P20W]	1.84
ERDFPCPVCRKTSRYRSLRFNRQL [P20F]	3.1
ERDFPCPVCRKTSRYRSLRHNRQL [P20H]	1.87
ERDFPCPVCRKTSRYRSLRDNRQL [P20D]	2.06
ERDFPCPVCRKTSRYRSLRANRQL [P20A]	2.22
ERDFPCPVCRKTSRYRSLRCNRQL [P20C]	2.44
ERDFPCPVCRKTSRYRSLRENRQL [P20E]	2.04
ERDFPCPVCRKTSRYRSLRYNRQL [P20Y]	1.84
ERDFPCPVCRKTSRYRSLRTNRQL [P20T]	2.13

Variant	protein stability index
ERDFPCPVCRKTSRYRSLRQNRQL [P20Q]	2.17
ERDFPCPVCRKTSRYRGLRPNRQL [S17G]	2.15
ERDFPCPVCRKTSRYRCLRPNRQL [S17C]	1.71
ERDFPCPVCRKTSRYRPLRPNRQL [S17P]	2.71
ERDFPCPVCRKTSRYRTLRPNRQL [S17T]	1.45
ERDFPCPVCRKTSRYRNLRPNRQL [S17N]	2.22
ERDFPCPVCRKTSRYRKLRPNRQL [S17K]	2.25
ERDFPCPVCRKTSRYRVLRPNRQL [S17V]	2.24
ERDFPCPVCRKTSRYRHLRPNRQL [S17H]	1.89
ERDFPCPVCRKTSRYRELRPNRQL [S17E]	2.13
ERDFPCPVCRKTSRYRDLRPNRQL [S17D]	1.85
ERDFPCPVCRKTSRYRYLRPNRQL [S17Y]	1.44
ERDFPCPVCRKTSRYRWLRPNRQL [S17W]	2.31
ERDFPCPVCRKTSRYRLLRPNRQL [S17L]	1.69
ERDFPCPVCRKTSRYRRLRPNRQL [S17R]	2.31
ERDFPCPVCRKTSRYRQLRPNRQL [S17Q]	1.86
ERDFPCPVCRKTSRYRSLRPNRQH [L24H]	2.82
ERDFPCPVCRKTSRYRSLRPNRQQ [L24Q]	3.08
ERDFPCPVCRKTSRYRSLRPNRQC [L24C]	3.12
ERDFPCPVCRKTSRYRSLRPNRQG [L24G]	2.06
ERDFPCPVCRKTSRYRSLRPNRQV [L24V]	2.19
ERDFPCPVCRKTSRYRSLRPNRQI [L24I]	1.85
ERDFPCPVCRKTSRYRSLRPNRQW [L24W]	1.36

Variant	protein stability index
ERDFPCPVCRKTSRYRSLRPNRQP [L24P]	3.2
ERDFPCPVCRKTSRYRSLRPNRQS [L24S]	3.32
ERDFPCPVCRKTSRYRSLRPNRQT [L24T]	2.51
ERDFPCPVCRKTSRYRSLRPNRQF [L24F]	2.04
ERDFPCPVCRKTSRYRSLRPNRQR [L24R]	3.37
ERDFPCPVCRKTSRYRSLRPNRQN [L24N]	2.41
ERDFPCPVCRKTSRYRSLRPNRQA [L24A]	1.81
ERDFPCPVCRKTSRYRSLRPNRQD [L24D]	1.75
ERDFPCPVCRKTSRMRSLRPNRQL [Y15M]	1.54
ERDFPCPVCRKTSRRRSLRPNRQL [Y15R]	2.65
ERDFPCPVCRKTSRTRSLRPNRQL [Y15T]	1.9
ERDFPCPVCRKTSRIRSLRPNRQL [Y15I]	2.24
ERDFPCPVCRKTSRNRSLRPNRQL [Y15N]	2.31
ERDFPCPVCRKTSRPRSLRPNRQL [Y15P]	2.29
ERDFPCPVCRKTSRWRSLRPNRQL [Y15W]	1.95
ERDFPCPVCRKTSRQRSLRPNRQL [Y15Q]	2.52
ERDFPCPVCRKTSRKRSLRPNRQL [Y15K]	3.33
ERDFPCPVCRKTSRVRSLRPNRQL [Y15V]	1.64
